Results on 17 molecules are retold here after patent publication US20250026849A1 (ARCELLX, published 2025).

The chains are these.
T1: CD123 (Homo sapiens (Human), UniProt P26951 19-305, limits assumed)
T1 construct: also called CD123-Signal
T1 sequence: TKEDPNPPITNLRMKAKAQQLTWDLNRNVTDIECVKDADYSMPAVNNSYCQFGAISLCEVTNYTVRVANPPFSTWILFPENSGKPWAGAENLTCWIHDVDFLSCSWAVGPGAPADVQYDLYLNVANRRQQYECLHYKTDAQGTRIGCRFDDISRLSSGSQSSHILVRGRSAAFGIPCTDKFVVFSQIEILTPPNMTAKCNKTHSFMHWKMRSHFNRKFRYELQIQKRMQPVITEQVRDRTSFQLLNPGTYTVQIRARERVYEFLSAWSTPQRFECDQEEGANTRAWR

B1: D domain SEQ ID NO: 717 (designed binder)
chain: MGSWTEFVWRLDAIEWRLEALGGSEAELAAFEKEIAAFESELQAYKGKGNPEVEFLREEAAEIRDWLQAYRHN
B2: D domain SEQ ID NO: 729 (designed binder)
chain: MGSWWEFESRLDAIFMRLTALGGSEAELAAFEKEIAAFESELQAYKGKGNPEVEDLREDAAFIREFLQAYRHN
B3: D domain SEQ ID NO: 718 (designed binder)
chain: MGSWVEFYDRLYAIEVRLLALGGSEAELAAFEKEIAAFESELQAYKGKGNPEVEFLRQEAAEIRDWLQAYRHN
B4: D domain SEQ ID NO: 740 (designed binder)
chain: MGSWYEFEERLYAIEDRLYALGGSEAELAAFEKEIAAFESELQAYKGKGNPEVEFLRQEAADIRLMLQAYRHN
B5: D domain SEQ ID NO: 728 (designed binder)
chain: MGSWWEFEDRLDAIEYRLFALGGSEAELAAFEKEIAAFESELQAYKGKGNPEVEFLREEAAFIRIFLQAYRHN
B6: D domain SEQ ID NO: 719 (designed binder)
chain: MGSWYEFYDRLDAIEWRLWALGGSEAELAAFEKEIAAFESELQAYKGKGNPEVEWLRDEAAQIRDFLQAYRHN
B7: D domain SEQ ID NO: 722 (designed binder)
chain: MGSWFEFLDRLDAIEERLWALGGSEAELAAFEKEIAAFESELQAYKGKGNPEVEWLREEAAVIRDSLQAYRHN
B8: D domain SEQ ID NO: 739 (designed binder)
chain: MGSWYEFADRLWAIEDRLWALGGSEAELAAFEKEIAAFESELQAYKGKGNPEVEFLRYYAADIRWVLQAYRHN
B9: D domain SEQ ID NO: 743 (designed binder)
chain: MGSWFEFEDRLDAIWDRLWALGGSEAELAAFEKEIAAFESELQAYKGKGNPEVEFLRMDAAMIRYILQAYRHN
B10: D domain SEQ ID NO: 742 (designed binder)
chain: MGSWIEFESRLWAIEDRLLALGGSEAELAAFEKEIAAFESELQAYKGKGNPEVEFLRLEAADIREDLQAYRHN
B11: D domain SEQ ID NO: 741 (designed binder)
chain: MGSWTEFEWRLYAIEDRLMALGGSEAELAAFEKEIAAFESELQAYKGKGNPEVEFLRDEAADIRQYLQAYRHN
B12: D domain SEQ ID NO: 726 (designed binder)
chain: MGSWVEFEYRLDAITERLLALGGSEAELAAFEKEIAAFESELQAYKGKGNPEVEILREEAAFIRQWLQAYRHN
B13: D domain SEQ ID NO: 727 (designed binder)
chain: MGSWWEFLDRLDAIEMRLFALGGSEAELAAFEKEIAAFESELQAYKGKGNPEVEYLREEAALIRNMLQAYRHN
B14: D domain SEQ ID NO: 720 (designed binder)
chain: MGSWVEFYDRLDAIEHRLDALGGSEAELAAFEKEIAAFESELQAYKGKGNPEVEWLRDEAAFIRDMLQAYRHN
B15: D domain SEQ ID NO: 721 (designed binder)
chain: MGSWFEFVDRLTAIQVRLWALGGSEAELAAFEKEIAAFESELQAYKGKGNPEVEYLREEAALIRYSLQAYRHN
B16: D domain SEQ ID NO: 723 (designed binder)
chain: MGSWYEFMVRLDAIEERLFALGGSEAELAAFEKEIAAFESELQAYKGKGNPEVEFLREEAASIRYHLQAYRHN
B17: D domain SEQ ID NO: 738 (designed binder)
chain: MGSWVEFWDRLWAIEDRLWALGGSEAELAAFEKEIAAFESELQAYKGKGNPEVEHLRHYAADIRVWLQAYRHN

This experiment concerns the target T1, CD123. The experiment can be described thus: ELISA, format not described. The arrangement: unit not given here. On the technique in general: In an ELISA, binding on a coated surface is turned into a signal by an enzyme label.
The molecule B1 yielded an ELISA_avg of 4.2.
Next, B2: 3.7; B3: 5.8.
In turn, B4 gave an ELISA_avg of 11.5.
With B5 the figure was 4.9.
With B6 the figure was 6.2; with B7, 12.2; with B8, 4.
Next, B9: 5.1; B10: 8.7.
For B11, the ELISA_avg was 4.2.
With B12 the figure was 3.9; with B13, 9; with B14, 3.4.
Next, B15: 5.1; B16: 4.1; B17: 4.5.
